Tests used:
[1] = target: T1, Timeless (optimised construct);Tipin (Homo sapiens;Homo sapiens, UniProt Q9UNS1;Q9BVW5 1-238+=GSTGST+331-1208;1-301, internal_change|); test: EMSA; 5 uM protein, 5 uM DNA; FA at 25 C, 10 nM DNA: DBD in 25 mM HEPES-NaOH pH 7.2, 150 mM KCl, 0.5 mM EDTA, 0.005% Tween-20; Timeless-Tipin in 25 mM HEPES pH 7.1, 150 mM KCl, 1 mM DTT, 5 mM MgCl2; EMSA in 25 mM HEPES pH 7.1, 150 mM KCl, 5 mM MgCl2, 1 mM DTT on ice, 1% agarose at 4 C; conditions: protein: recombinant;recombinant, tags: His14-SUMO removed;His6-GST removed, copies: 1;1, label: 5' 6FAM
T1 sequence (Q9UNS1 other isoform, or with tags, fused parts or gaps |, chain 1 of 2): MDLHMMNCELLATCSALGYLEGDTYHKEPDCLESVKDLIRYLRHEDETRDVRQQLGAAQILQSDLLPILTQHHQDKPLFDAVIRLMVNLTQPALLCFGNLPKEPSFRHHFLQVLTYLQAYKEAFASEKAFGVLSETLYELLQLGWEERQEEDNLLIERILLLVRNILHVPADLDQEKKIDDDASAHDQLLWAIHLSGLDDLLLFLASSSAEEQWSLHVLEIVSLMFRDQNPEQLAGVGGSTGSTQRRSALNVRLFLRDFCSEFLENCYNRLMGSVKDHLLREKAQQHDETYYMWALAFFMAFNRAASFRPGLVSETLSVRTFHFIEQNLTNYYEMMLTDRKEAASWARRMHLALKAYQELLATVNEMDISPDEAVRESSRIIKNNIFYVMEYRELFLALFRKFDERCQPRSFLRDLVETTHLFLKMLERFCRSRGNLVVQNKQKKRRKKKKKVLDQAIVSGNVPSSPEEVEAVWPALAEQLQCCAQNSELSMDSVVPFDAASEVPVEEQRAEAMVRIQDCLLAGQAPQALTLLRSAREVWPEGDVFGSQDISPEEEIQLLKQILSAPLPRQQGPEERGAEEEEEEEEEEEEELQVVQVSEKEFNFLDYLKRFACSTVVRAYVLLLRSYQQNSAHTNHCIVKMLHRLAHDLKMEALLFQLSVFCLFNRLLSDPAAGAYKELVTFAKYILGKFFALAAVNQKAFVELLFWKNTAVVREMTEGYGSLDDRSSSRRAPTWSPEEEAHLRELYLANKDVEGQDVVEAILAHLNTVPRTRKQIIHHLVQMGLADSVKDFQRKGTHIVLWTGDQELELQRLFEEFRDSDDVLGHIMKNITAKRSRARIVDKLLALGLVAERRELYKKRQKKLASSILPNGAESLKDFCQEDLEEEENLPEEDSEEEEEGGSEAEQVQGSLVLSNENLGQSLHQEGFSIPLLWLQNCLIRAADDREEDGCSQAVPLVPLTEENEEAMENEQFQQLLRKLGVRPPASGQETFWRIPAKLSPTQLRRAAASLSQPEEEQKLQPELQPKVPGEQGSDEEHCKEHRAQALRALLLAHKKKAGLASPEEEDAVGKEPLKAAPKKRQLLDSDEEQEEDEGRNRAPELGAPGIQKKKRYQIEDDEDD
T1 sequence (Q9BVW5 whole entry, change not shown, chain 2 of 2): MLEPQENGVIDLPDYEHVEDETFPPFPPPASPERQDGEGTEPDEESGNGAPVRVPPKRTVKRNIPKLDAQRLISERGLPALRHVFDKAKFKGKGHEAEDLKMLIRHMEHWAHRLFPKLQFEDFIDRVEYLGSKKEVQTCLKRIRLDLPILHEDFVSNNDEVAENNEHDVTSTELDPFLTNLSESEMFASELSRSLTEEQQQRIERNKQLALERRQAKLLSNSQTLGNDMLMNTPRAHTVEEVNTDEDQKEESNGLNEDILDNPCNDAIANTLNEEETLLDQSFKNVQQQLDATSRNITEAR

Timeless DBD = Timeless DBD (Homo sapiens, UniProt Q9UNS1 816-954); test: fluorescence anisotropy; 150 mM KCl; FA at 25 C, 10 nM DNA: DBD in 25 mM HEPES-NaOH pH 7.2, 150 mM KCl, 0.5 mM EDTA, 0.005% Tween-20; Timeless-Tipin in 25 mM HEPES pH 7.1, 150 mM KCl, 1 mM DTT, 5 mM MgCl2; EMSA in 25 mM HEPES pH 7.1, 150 mM KCl, 5 mM MgCl2, 1 mM DTT on ice, 1% agarose at 4 C; conditions: protein: recombinant, tags: His14-SUMO removed
Timeless DBD, sequence (Q9UNS1 816-954): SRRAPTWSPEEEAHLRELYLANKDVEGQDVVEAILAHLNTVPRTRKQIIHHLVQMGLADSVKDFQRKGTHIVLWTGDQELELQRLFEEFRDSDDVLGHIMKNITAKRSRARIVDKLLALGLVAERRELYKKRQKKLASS

[2] = target: T1, Timeless (optimised construct);Tipin; test: fluorescence anisotropy; 150 mM KCl, 5 mM MgCl2; FA at 25 C, 10 nM DNA: DBD in 25 mM HEPES-NaOH pH 7.2, 150 mM KCl, 0.5 mM EDTA, 0.005% Tween-20; Timeless-Tipin in 25 mM HEPES pH 7.1, 150 mM KCl, 1 mM DTT, 5 mM MgCl2; EMSA in 25 mM HEPES pH 7.1, 150 mM KCl, 5 mM MgCl2, 1 mM DTT on ice, 1% agarose at 4 C; conditions: protein: recombinant;recombinant, tags: His14-SUMO removed;His6-GST removed, copies: 1;1, label: 5' 6FAM
[3] = G4 intramolecular with ssDNA flanks

B1: ssHP (structured_DNA)
DNA: ACGAGAGCTAGCACATTTTGAGGCTGCGTTTCGCAGCCTCAATTTCACGTAGAACCTGT
- binding result ([1]; hairpin with ssDNA flanks): no binding

B2: G4 DNA (MYC, 1XAV) Cy3 (structured_DNA)
DNA: TGAGGGTGGGTAGGGTGGGTAA
- Kd (Timeless DBD; label: 3' Cy3, G4 intramolecular): ~120 nM

B3: ssG4 (structured_DNA)
DNA: ACGAGAGCTAGCACATTTTGAGGGTGGGTAGGGTGGGTAATTTTCACGTAGAACCTGT
- Kd [2, 3]: 600 ± 30 nM

B4: ss (ssDNA)
DNA: ACGAGAGCTAGCACATTTTGAGTGTCAGTAGCGTCTGTAATTTTCACGTAGAACCTGT
- binding result ([1]; single strand): no binding

B5: ssDNA (Fig 2D) (ssDNA)
DNA: TGAGAGTGAGTAGAGTGAGTAA
- binding result (Timeless DBD; single strand): binds

B6: ds20 (dsDNA)
DNA 1: ATAAGAGTGGTTAGAGTGTA
DNA 2: TACACTCTAACCACTCTTAT
- binding result ([2]; blunt): no binding

B7: ss20 (ssDNA)
DNA: ATAAGAGTGGTTAGAGTGTA
- binding result ([2]; single strand): no binding

B8: 1XAV (structured_DNA)
DNA: TGAGGGTGGGTAGGGTGGGTAA
- binding result ([2]; G4 intramolecular): binds

B9: dsDNA (Fig 2D) (dsDNA)
DNA 1: TGAGAGTGAGTAGAGTGAGTAA
DNA 2: TTACTCACTCTACTCACTCTCA
- Kd (Timeless DBD; blunt): ~800 nM

B10: BU1 +3.5 (structured_DNA)
DNA: AGCTAGCACATTTTAAGGGCTGGGTGGGTGCTGTCAAGGGCTGGGTTTTCACGTAGAA
- binding result [1, 3]: binds
